Columns and labels:
[1] = tested on: EMT regulators and adhesion factors in human primary fibroblasts (IMR90); experiment: EMT related gene expression by qPCR in IMR90; assay type: cell-based; conditions: vs empty vector
From the text: (§1) FIG. 15. Expression of the micropeptide of SEQ ID NO: 2 induces loss of mesenchymal identity in IMR90 (A), MIA PaCa-2 (B) and BxPC-3 (C) cell lines. mRNA levels of the indicated genes measured by qPCR. Values are relative to cells expressing the empty vector as a control. *P<0.05, **P<0.01, ***P<0.001 using Student's t-test for statistics. Error bars represent standard error of n=3 technical replicates.
(§2) Total RNA was extracted with Trizol® and treated with TURBO™ DNase following provider's recommendations. 1 μg of RNA was retrotranscribed using iScript™ cDNA Synthesis Kit (BioRad). Gene expression was analysed by quantitative real time PCR using PowerUp SYBR Green Master Mix (Thermo Fisher Scientific) in the 7900HT Fast Real-Time PCR System (Applied Biosystems). Cycle threshold (Ct) values were normalized to GAPDH.

[2] = tested on: EMT regulators and adhesion factors in MIA PaCa-2 pancreatic cancer cell line; experiment: EMT related gene expression by qPCR in MIA PaCa-2; assay type: cell-based; conditions: MIA PaCa-2, vs empty vector
From the text: as §1, §2

[3] = tested on: EMT regulators and adhesion factors in BxPC-3 pancreatic cancer cell line; experiment: EMT related gene expression by qPCR in BxPC-3; assay type: cell-based; conditions: BxPC-3, vs empty vector
From the text: as §1, §2

[4] = tested on: EMT regulators, adhesion factors and METALLOPROTEINASE-2 in murine pancreatic cancer associated fibroblasts (mCAFs); experiment: EMT related gene expression by qPCR in mCAFs; assay type: cell-based; conditions: vs empty vector
Procedure: (§3) FIG. 16. Overexpression of the micropeptide of SEQ ID NO: 2 induces loss of mesenchymal identity. mRNA levels of the indicated genes were measured by qPCR in mCAFs (A-B) cells. Values are relative to cells expressing the empty vector as a control. *P<0.05; **P<0.01; ***P<0.001 using Student's t-test for statistics. Error bars represent standard error of n=3 technical replicates.
as §2

[5] = tested on: BxPC-3 cells; experiment: Wound healing assay; assay type: cell-based; conditions: BxPC-3, vs empty vector
Procedure: (§4) FIG. 17. The micropeptide of SEQ ID NO: 2 impairs migration capability of pancreatic cancer cell lines. Wound healing assay was performed in MIA PaCa-2 (A) and BxPC-3 (B) cells infected with MIDORI or empty vector. Phase contrast images show the wound at the indicated time points after the scratch was performed.
(§5) MIA PaCa-2 and BxPC-3 cells were trypsinized, counted, and 400,000 cells/well were seeded in 6-well plates. Next day, a pipette tip was used to scratch the surface of cell monolayer, forming a wound. An Olympus CeIIR microscope equipped with a Hamamatsu C9100 camera was used to follow the closure of the wound.

[6] = tested on: MIA PaCa-2 cells; experiment: Wound healing assay; assay type: cell-based; conditions: MIA PaCa-2, vs empty vector
Procedure: as §4, §5

[7] = tested on: BxPC-3 cell line; experiment: Invasion assay (Boyden chamber, Matrigel); assay type: cell-based; conditions: BxPC-3, 24 hours after seeding, vs empty vector
Procedure: (§6) FIG. 18. Expression of the micropeptide of SEQ ID NO: 2 impairs cell invasion in pancreatic cancer cells. (A) Invasion of BxPC-3 cells transduced with micropeptide of SEQ ID NO: 2 or empty vector across matrigel-covered inserts. Representative pictures of invading cells 24 hours after seeding. (B) Relative number of invading cells. Bars represent the average of two independent experiments±SD (n=2), as relative to invading cells in the empty vector conditions. * p<0.05, using Student's t-test.
(§7) BxPC-3, MDA-MB-231, A549 and H10 cell lines were trypsinized, counted, and 20.000 cells/well were seeded in triplicate in a Corning® cell culture insert (Boyden chamber) in which the porous membrane is coated with a layer of Matrigel® to mimic an extra cellular matrix (ECM). Cells were allowed to invade through the coated membrane for 24 hours in the cell incubator at 37° C. After the incubation time, culture inserts were fixed in methanol 5 minutes at RT and stained using Crystal Violet 20 minutes at RT. The excess of Crystal Violet staining was removed washing with PBS and pictures of the chambers were taken using an Olympus CeIIR microscope. Invading cells were counted using ImageJ and fold change was calculated normalizing to the control.

[8] = tested on: PDAC pancreatic cancer cells co-cultured with CAFs; experiment: CAFs pro-invasive activity, co-culture with PDAC cells in Matrigel coated inserts; assay type: cell-based, mice; conditions: micropeptide expressed in CAFs in bottom compartment, PDAC cells co-cultured 24 h
Procedure: FIG. 19. Expression of the micropeptide of SEQ ID NO: 2 reduces pro-tumoral activity of mCAFs cells. (A) Invasion of WT PDAC pancreatic cancer cells across matrigel-covered inserts where mCAFs expessing the micropeptide of SEQ ID NO: 2 or empty vector were seeded in the bottom compartment of the Boyden chambers. Representative pictures of invading cells 24 hours after seeding. (B) Relative number of invading cells.±SD (n=3 technical replicates), as relative to invading cells in the empty vector conditions.
BxPC-3 and A549 cell lines were cultured in RPMI supplemented with 10% of FBS and penicillin-streptomycin. Patient derived-H10 skin squamous cell carcinoma cell line was cultured in DMEM-F12 supplemented with B27 and penicillin-streptomycin. Cancer associated fibroblasts (CAFs) and PDAC cell lines were derived from LSL^−KrasG12D/+;LSL-Trp53R172H/+;Pdx-1-Cre mice and cultured in DMEM-F12 supplemented with 10% FBS and penicillin-streptomycin. All the other cell lines were cultured in DMEM supplemented with 10% of FBS and penicillin streptomycin. Cultures were routinely tested for mycoplasma and were always negative.
In order to test CAFs pro-invasive activity, 40.000 CAFs/well were seeded in 24-well plates. 48 h later, PDAC cells were trypsinized, counted, and 20.000 cells were seeded in the upper compartment of Matrigel® coated inserts that were placed over CAFs containing wells. […]

[9] = tested on: SLUG, ZEB1, ZEB2, VIMENTIN, E-CADHERIN and CYTOKERATIN-5 in MDA-MB-231; experiment: Mesenchymal and epithelial gene expression by qPCR in MDA-MB-231; assay type: cell-based, human; conditions: MDA-MB-231, vs empty vector
Procedure: as §3, with “21.” for “16.”, “MDA-MB-231 cell line.” for “mCAFs (A-B) cells.”
as §2

[10] = tested on: MDA-MB-231 breast cancer cell line; experiment: Invasion assay (Boyden chamber, Matrigel); assay type: cell-based, human; conditions: MDA-MB-231, 24 hours after seeding, vs empty vector
Procedure: as §6, with “22.” for “18.”, “reduces” for “impairs”, “of breast” for “in pancreatic”, “MDA-MB-231 breast cancer” for “BxPC-3”, “cells±SD (n=3 technical replicates),” for “cells. Bars represent the average of two independent experiments±SD (n=2),”
as §7

[11] = tested on: A549, human lung cancer; experiment: Cell death after retroviral overexpression (phase contrast images); assay type: cell-based
From the text: (§8) FIG. 23. Overexpression of the micropeptide of SEQ ID NO: 3 in cancer cell lines. (A) Analysis of SEQ ID NO: 3 overexpression by qPCR in A459 cells. (B) Detection of SEQ ID NO: 3 micropeptide expression in A459 cells by Western blot. (C) Phase contrast images of the indicated cell lines after SEQ ID NO: 3 overexpression.

[12] = tested on: HCT116, human colorectal cancer; experiment: as above; assay type: cell-based
From the text: as §8

[13] = tested on: p21; experiment: p21 expression by qPCR in A549; assay type: cell-based, human; conditions: A459 cells
Procedure: (§9) FIG. 24. Overexpression of the micropeptide of SEQ ID NO: 3 induces p21 upregulation and a pro-apoptotic program (A) qPCR analysis of p21 expression in HCT116 and A549 cancer cell lines upon SEQ ID NO: 3 overexpression. (B) Western blot analysis of p21 protein in A549 SEQ ID NO: 3-overexpressing cells. Cells treated with Nutlin-3 (10 μM) were used as positive control for p21 upregulation. (C) qPCR analysis of the indicated apoptosis-related genes in SEQ ID NO: 3-overexpressing HCT116 cells.
as §2

[14] = tested on: p21; experiment: p21 expression by qPCR in HCT116; assay type: cell-based, human; conditions: HCT116 cells
Procedure: as §9, §2

[15] = tested on: p21 protein; experiment: p21 protein by Western blot in A549; assay type: cell-based, human
Procedure: as §9
Cells pellets (4-5*10^6 cells) were homogenized in medium-salt lysis buffer (150 mM NaCl, 50 mM Tris pH 8, 1% NP40 and protein inhibitors cocktail). 50 μg of protein was loaded per lane in a 12% acrylamide gel and electrophoresed in Tris-Glycine SDS Running Buffer. The following antibodies were used: Anti-HA-Tag (Abcam, 1:5000), Anti-p53 (Santa Cruz, 1:1000), Anti-p21 (Thermo Fisher, 1:1000), Anti-GAPDH (Thermo Fisher, 1:5000).

[16] = tested on: BAX, BAK and BCL-2; experiment: Apoptosis-related gene expression by qPCR in HCT116; assay type: cell-based, human; conditions: HCT116 colorectal cancer cell line
Procedure: as §9, §2

expression of EMT regulators SNAIL, SLUG, ZEB1, ZEB2, TWIST1 and VIMENTIN (if expressed) and adhesion factors COLLAGEN I, COLLAGEN IV, CD44 and FIBRONECTIN [4] | expression of METALLOPROTEINASE-2 [4] | Molecule | expression of EMT regulators SNAIL, SLUG, ZEB1, ZEB2, TWIST1 and VIMENTIN (if expressed) and adhesion factors COLLAGEN I, COLLAGEN IV, CD44 and FIBRONECTIN [1] | expression of EMT regulators SNAIL, SLUG, ZEB1, ZEB2, TWIST1 and VIMENTIN (if expressed) and adhesion factors COLLAGEN I, COLLAGEN IV, CD44 and FIBRONECTIN [2] | expression of EMT regulators SNAIL, SLUG, ZEB1, ZEB2, TWIST1 and VIMENTIN (if expressed) and adhesion factors COLLAGEN I, COLLAGEN IV, CD44 and FIBRONECTIN [3] | migration capability in wound healing assays [5] | migration capability in wound healing assays [6] | invasion [7] | pancreatic cancer cell invasion (non-cell autonomous) [8] | expression of epithelial markers E-CADHERIN and CYTOKERATIN-5 [9] | expression of the EMT regulators SLUG, ZEB1, ZEB2 and VIMENTIN [9] | invasion capability [10] | cell death [11] | cell death [12] | p21 expression (qPCR) [13] | p21 expression (qPCR) [14] | p21 protein levels [15] | expression of the antiapoptotic gene BCL-2 [16] | expression of the pro-apoptotic genes BAX and BAK [16]
downregulation | downregulation | SEQ ID NO: 2: 64-amino acid micropeptide encoded by ZEB2 antisense 1 (ZEB2AS1) long non-coding RNA (protein, listed as Homo sapiens) MVRRKSMKKPRSVGEKKVEAKKQLPEQTVQKPRQECREAGPLFLQSRRETRDPETRATYLCGEG | downregulation | downregulation | downregulation | decreased migration capability | decreased migration capability | decreased invasion | reduces pancreatic cancer cell invasion | upregulation | downregulation | decreased invasion capability |  |  |  |  |  |  | 
 |  | SEQ ID NO: 3: 78-amino acid micropeptide encoded by the first exon of LINC0086 lncRNA (protein, listed as Homo sapiens) MAASAALSAAAAAAALSGLAVRLSRSAAARGSYGAFCKGLTRTLLTFFDLAWRLRMNFPYFYIVASVMLNVRLQVRIE |  |  |  |  |  |  |  |  |  |  | massive cell death | massive cell death | substantial p21 upregulation | substantial p21 upregulation | increased p21 protein levels | downregulation | upregulation
